Key:
3×MBT domain of L3MBTL1 = experiment: Triple SILAC pull-down, 3xMBT/3xMBTD355N ratio (cytoplasmic, nuclear and chromatin fractions of 293T cells); assay type: binding, human; details: for 3xMBT/D355N UNC Heavy: experiment with UNC0638 in heavy SILAC media; for 3xMBT/D355N UNC Light: experiment with UNC0638 in light SILAC media;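 for all read-outs here: proteins quantified with MaxQuant, requiring at least two unique peptides and quantification in both label directions, normalized to the mean of proteins from a digested loading control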
G9a and GLP = target: T1, G9a and GLP (Homo sapiens, UniProt Q96KQ7+Q9H9B1); experiment: Triple SILAC pull-down after UNC0638 treatment of 293T cells, DMSO/UNC0638 ratio of protein captured by 3×MBT; assay type: cell-based; details: for Relative to UNC0638 UNC Heavy: UNC0638 in heavy SILAC media; for Relative to UNC0638 UNC Light: UNC0638 in light SILAC media; for Relative to UNC0638 Average: average of UNC Light and UNC Heavy experiments;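 for all read-outs here: mass spectrometry (Q-Exactive) SILAC quantitation, DMSO/UNC0638 ratio computed after subtracting 3×MBTD355N mutant pull-down background, only proteins with at least twofold 3×MBT over mutant signal considered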
T1 construct: endogenous in cells; host or cells: HEK 293T
T1 sequence (Q96KQ7 2-1210 limits assumed): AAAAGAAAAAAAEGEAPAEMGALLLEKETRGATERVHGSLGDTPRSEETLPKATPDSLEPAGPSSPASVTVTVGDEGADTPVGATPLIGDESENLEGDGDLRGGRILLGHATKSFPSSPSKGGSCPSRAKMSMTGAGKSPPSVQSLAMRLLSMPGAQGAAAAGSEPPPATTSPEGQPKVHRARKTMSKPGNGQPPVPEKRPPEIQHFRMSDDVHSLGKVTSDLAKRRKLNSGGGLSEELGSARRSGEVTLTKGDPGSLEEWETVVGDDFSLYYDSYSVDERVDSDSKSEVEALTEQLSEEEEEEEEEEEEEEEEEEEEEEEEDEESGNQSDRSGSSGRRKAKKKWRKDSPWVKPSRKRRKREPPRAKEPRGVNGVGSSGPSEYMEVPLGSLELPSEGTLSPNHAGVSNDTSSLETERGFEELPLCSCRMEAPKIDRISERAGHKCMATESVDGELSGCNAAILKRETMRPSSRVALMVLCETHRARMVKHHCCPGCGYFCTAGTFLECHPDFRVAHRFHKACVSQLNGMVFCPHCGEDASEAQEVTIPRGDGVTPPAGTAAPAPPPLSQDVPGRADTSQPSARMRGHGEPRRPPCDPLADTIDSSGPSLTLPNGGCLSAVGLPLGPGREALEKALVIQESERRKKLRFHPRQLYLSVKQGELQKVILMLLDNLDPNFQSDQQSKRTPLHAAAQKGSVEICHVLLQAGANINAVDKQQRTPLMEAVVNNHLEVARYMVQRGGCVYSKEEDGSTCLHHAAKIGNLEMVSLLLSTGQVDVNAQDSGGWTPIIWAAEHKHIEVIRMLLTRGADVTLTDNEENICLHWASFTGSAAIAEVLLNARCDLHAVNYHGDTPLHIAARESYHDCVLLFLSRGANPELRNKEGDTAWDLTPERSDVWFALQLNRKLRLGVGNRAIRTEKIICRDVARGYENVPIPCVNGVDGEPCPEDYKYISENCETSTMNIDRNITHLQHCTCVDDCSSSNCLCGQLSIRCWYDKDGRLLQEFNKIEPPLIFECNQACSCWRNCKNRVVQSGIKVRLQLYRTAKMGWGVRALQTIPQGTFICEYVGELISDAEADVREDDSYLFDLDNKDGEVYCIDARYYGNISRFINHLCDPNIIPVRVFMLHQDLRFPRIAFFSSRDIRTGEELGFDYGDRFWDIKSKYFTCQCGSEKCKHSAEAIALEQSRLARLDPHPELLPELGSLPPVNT
T1 sequence (Q9H9B1 2-1298 limits assumed): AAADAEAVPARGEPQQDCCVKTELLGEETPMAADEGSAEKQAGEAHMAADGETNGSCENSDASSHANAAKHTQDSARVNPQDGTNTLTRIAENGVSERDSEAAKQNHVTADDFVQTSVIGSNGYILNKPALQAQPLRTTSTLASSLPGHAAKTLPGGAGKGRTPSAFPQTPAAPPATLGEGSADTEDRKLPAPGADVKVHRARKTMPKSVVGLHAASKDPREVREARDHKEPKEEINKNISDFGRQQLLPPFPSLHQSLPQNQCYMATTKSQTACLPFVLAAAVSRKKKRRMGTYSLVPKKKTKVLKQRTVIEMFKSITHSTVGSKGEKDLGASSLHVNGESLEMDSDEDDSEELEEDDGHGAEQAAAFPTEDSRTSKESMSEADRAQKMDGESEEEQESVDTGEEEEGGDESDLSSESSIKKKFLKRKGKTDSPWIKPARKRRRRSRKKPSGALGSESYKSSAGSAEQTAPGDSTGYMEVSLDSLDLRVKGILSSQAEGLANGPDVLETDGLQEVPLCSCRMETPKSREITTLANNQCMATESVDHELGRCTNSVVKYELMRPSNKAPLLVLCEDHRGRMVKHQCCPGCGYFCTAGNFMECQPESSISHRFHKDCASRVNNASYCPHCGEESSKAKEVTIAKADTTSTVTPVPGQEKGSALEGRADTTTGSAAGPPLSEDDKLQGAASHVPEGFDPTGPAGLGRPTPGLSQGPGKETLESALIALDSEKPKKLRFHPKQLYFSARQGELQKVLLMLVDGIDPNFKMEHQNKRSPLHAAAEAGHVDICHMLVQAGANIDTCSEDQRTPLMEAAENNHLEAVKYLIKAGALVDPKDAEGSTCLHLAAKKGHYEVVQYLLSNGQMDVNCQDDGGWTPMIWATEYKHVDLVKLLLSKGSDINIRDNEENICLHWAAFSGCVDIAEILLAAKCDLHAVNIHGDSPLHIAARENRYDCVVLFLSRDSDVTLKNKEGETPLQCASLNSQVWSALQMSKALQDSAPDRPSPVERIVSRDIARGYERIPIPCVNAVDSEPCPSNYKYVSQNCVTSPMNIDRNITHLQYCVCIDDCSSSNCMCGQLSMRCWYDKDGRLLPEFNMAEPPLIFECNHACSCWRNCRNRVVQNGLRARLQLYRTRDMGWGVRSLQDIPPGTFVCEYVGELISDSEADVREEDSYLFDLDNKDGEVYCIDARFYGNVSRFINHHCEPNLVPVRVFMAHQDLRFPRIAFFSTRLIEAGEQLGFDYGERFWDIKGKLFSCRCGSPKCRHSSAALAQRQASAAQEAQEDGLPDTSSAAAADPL

[1] = SILAC ratio, pull-down 3xMBT vs 3xMBTD355N
[2] = SILAC ratio DMSO/UNC0638 of protein pulled down with 3xMBT
[3] = SILAC ratio 3xMBT vs 3xMBTD355N pull-down, 293T cells, all values in log base 2
[4] = SILAC ratio DMSO relative to UNC0638, pull-down with 3xMBT, all values in log base 2

Row | Substance | 3xMBT/D355N UNC Heavy (3×MBT domain of L3MBTL1; [1]) [log base 2] | 3xMBT/D355N UNC Light (3×MBT domain of L3MBTL1; [1]) [log base 2] | Relative to UNC0638 UNC Heavy (G9a and GLP; [2]) [log base 2] | Relative to UNC0638 UNC Light (G9a and GLP; [2]) [log base 2] | Relative to UNC0638 Average (G9a and GLP) [log base 2] | 3xMBT/D355N UNC Heavy (3×MBT domain of L3MBTL1; [3]) [log base 2] | 3xMBT/D355N UNC Light (3×MBT domain of L3MBTL1; [3]) [log base 2] | Relative to UNC0638 UNC Heavy (G9a and GLP; [4]) [log base 2] | Relative to UNC0638 UNC Light (G9a and GLP; [4]) [log base 2] | Relative to UNC0638 Average (G9a and GLP; all values in log base 2) [log base 2] | Protein Ratios 3xMBT/D355N (3×MBT domain of L3MBTL1; SILAC ratio, pull-down by 3xMBT vs 3xMBTD355N, 293T cells) | Protein Ratios DMSO/UNC0638 (G9a and GLP; SILAC ratio of protein captured by 3xMBT, 293T cells treated 24 hours with UNC0638 at 2.5 μM or DMSO)
1 | G3BP1 [Hit G3BP1] | 2.02 | 2.72 | 0.23 | 0.15 | 0.19 | – | – | – | – | – | – | –
2 | VRK1 | 2.10 | 2.56 | 0.21 | 0.03 | 0.12 | – | – | – | – | – | – | –
3 | TOP2A | 2.56 | 2.96 | 0.42 | −0.18 | 0.12 | – | – | – | – | – | – | –
4 | SNRNP70 | – | – | – | – | – | 3.26 | 3.57 | 0.22 | −0.01 | 0.11 | – | –
5 | CFL1 | 2.43 | 3.06 | 0.19 | 0.07 | 0.13 | – | – | – | – | – | – | –
6 | TUBB | 1.16 | 1.42 | 0.31 | 0.14 | 0.22 | – | – | – | – | – | – | –
7 | MDC1 | 2.31 | 2.83 | 0.36 | 0.11 | 0.24 | – | – | – | – | – | – | –
8 | DNA-dependent protein kinase catalytic subunit | – | – | – | – | – | – | – | – | – | – | 4.5 | 1.5

From US20140274782A1, “AFFINITY REAGENTS AND METHODS FOR DETECTION, PURIFICATION, AND PROTEOMIC ANALYSIS OF METHYLATED PROTEINS” (The Board of Trustees of the Leland Stanford Junior …, priority 2013, published 2014)
